Key:
[1] = molecular target: phosphorylated Nedd4-2^186–975 (human) (UniProt Q96PU5); experiment: SEC-SAXS; Superdex 200 Increase 5/150 GL, 20 mM Tris-HCl pH 7.5, 150 mM NaCl, 1 mM TCEP, 3% glycerol, 293.15 K; loaded 2.2 mg/ml Nedd4-2^186–975, 2 mg/ml 14-3-3η, 8.9 mg/ml complex (1:2, 60 μM)
[2] = molecular target: phosphorylated Nedd4-2^186–975 (human) (UniProt Q96PU5); experiment: AUC; sedimentation velocity, 20 °C, 50 mM Tris-HCl pH 8.0, 500 mM NaCl, 1 mM TCEP, 0.01% NP-40; 3 μM pNedd4-2^186–975 alone, 6 μM 14-3-3η alone, mixtures 1:1 and 1:2; 300 nM pNedd4-2^186–975 with 0.06−6 μM 14-3-3η; apparent KD, sw isotherm and Lamm-equation modelling, 14-3-3η dimer + one pNedd4-2

Chain of phosphorylated Nedd4-2^186–975 (human) (Q96PU5 186-975): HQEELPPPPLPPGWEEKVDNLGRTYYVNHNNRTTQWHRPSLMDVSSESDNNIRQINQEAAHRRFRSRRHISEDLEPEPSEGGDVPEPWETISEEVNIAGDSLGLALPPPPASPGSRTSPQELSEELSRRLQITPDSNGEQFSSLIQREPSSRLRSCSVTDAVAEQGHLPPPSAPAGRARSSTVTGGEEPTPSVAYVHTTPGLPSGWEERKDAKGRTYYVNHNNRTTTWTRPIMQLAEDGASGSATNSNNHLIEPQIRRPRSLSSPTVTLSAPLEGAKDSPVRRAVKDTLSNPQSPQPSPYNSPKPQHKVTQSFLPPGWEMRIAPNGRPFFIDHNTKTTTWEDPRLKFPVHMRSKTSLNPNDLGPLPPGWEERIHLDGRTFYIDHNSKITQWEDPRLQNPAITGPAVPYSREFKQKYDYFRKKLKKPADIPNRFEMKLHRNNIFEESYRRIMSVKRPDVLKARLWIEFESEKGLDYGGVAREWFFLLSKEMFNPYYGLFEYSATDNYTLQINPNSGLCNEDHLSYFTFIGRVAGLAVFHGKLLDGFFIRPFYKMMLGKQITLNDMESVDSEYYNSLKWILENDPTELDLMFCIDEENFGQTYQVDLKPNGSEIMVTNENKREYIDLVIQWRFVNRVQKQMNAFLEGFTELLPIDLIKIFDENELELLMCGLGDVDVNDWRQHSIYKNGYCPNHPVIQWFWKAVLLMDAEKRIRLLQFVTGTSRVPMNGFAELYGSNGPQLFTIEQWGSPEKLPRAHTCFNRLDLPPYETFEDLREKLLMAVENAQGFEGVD

- stoichiometry N (14-3-3η protomers per Nedd4-2 protomer) [1]: 2
- Kd [2]: < 50 nM
- stoichiometry N (14-3-3η protomers per Nedd4-2 protomer) [2]: 2
Substance: 14-3-3η (from UniProt Q04917 1-246) (natural protein)
